# Test: yeast display, Sf9 membrane polyspecificity reagent, FACS + sequencing; frameworks hold sequencing errors
# Summary of the method: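 Genes from sorted yeast were amplified by colony PCR, read by MiSeq 2 × 250 sequencing and filtered on CDR length. These cells carried a synthetic nanobody library in Saccharomyces cerevisiae BJ5465 and were sorted by FACS into low and high (top ~1%) gates on anti-HA and streptavidin fluorescence. Polyreactivity is labelled according to the gate of origin.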
row,Sequence,polyreactivity (PSR sort gate)
1,QVQLVESGGGLVQAGGSLRLSCAASGFIFSYYAMGWYRQAPGKERELVAAITSGGSTNYADSVKGRFTISRDNAKNTVYLQMNSLKPEDTAVFYCATAGSGGIGLFYSYDYWGQGTQVTVSS,low polyreactivity
2,QVQLVESGGGLVQAGGSLRLSCAASGSTFTYYAMGWYRQAPGKERELVAAITSRGGITYYADSVKGRFTISRDNAKNTVYLQMNSLKPEDTAVYYCNAYSQRYGYYYWGQGTQVTVSS,high polyreactivity
3,QVQLVESGGGLVQAGGSLRLSCAASGFTFWYYAMGWYRQAPGKERELVASISRTGGTTYYADSVKGRFTISRDNAKNTVYLQMNSLKPEDTAVYYCNARPKVYYREYDYWGQGTQVTVSS,high polyreactivity
4,QVQLVESGGGLVQAGGSLRLSCAASGSIFRGYAMGWYRQAPGKERELVAAIRYSGARTYYADSVKGRFTISRDNAKNTVYLQMNSLKPEDTAVYYCNARYIRSYDYWGQGTQVTVSS,high polyreactivity
5,QVQLVESGGGLVQAGGSLRLSCAASGFTLGWYAKGWYRQAPGKERELVASINWDGGSTYYADSVKVRFTISRDNAKNTVYLPMNSLKAEDTAVDYWAAPPGGGGGIGYDSWGQGTQVTVSS,high polyreactivity
6,QVQLVESGVGLVQAGGSLRLSCAASGSTFYQYAIGWYRQAPVKERELVAAISKSGGSTYYADSVKGRFTISRDNAKNTVYLQMNSLKPEDTAVYYCATRWIKGRKMDYWGHGTQVTVSS,high polyreactivity
7,QDQLVESGAGLVQAAGSLRLSCAASGSTFDTYALGWYRQAPGKERELVAAISVSGTSTSYADSVKGRFTISRDNAKNTVYLQMNSLKPEDTAVYYCNATDFSRNPGYARPEYDYWGQGTHVTVSS,low polyreactivity
8,QVQLVESGGGLVQAGGSLRLSCAASGRILTYNTMGWYRQAPGKERELVAAITWRGGSTYYADSVKGRFTISRDNAKNTVYLQMNSLKPEDTAVYYCAKYVAFHYKQYDFNWGQGTQVTVSS,high polyreactivity
9,QVQLVESGGGLVQAGGSLRLSCAASGSTFEIYAMGWYRQAPGKERELVATITWSGGSTYYADSVKGRFTISRDNAKNTVYLQMNSLKPEDTAVYYCAAESIYYPVAQYYYSFEYWGQGTQVTVSS,low polyreactivity
10,KVQLVESGGGLVQAGGSLRLSCAASGSIFGRYAMGWYIQAPGKERELVAGISSSGGRTYYADSVKGRFTISRDNAKNTVYLQMNSLKPEDTAVYYCAAVRSSWSYYYWGQGTQVTVSS,high polyreactivity
11,QVQLVESGGGLVQAGGSLRLSCAASGRIFASNAMGWYRQAPGKERELVAAISRTGGTTYYADSVKGRFTISRDNAKNTVYLQMNSLKPEDTAVYYCNAVKAPYLRYDYWGQGTQVTVSS,high polyreactivity
12,QVQLVESGGGLVQAGGSLSLSCAASGFIFLASAMGWYRQAPGKERELVAAISSGSSTSYADSLKGRFTISRDNAKNTVYLQMNSLKPEDTAVYYCNAVPSFANLTWESYDYWGQGTQVTVSS,low polyreactivity
13,QVLLVESGGGLVQAGGSLRLSCAASGSNFYRNAMGWYRQAPGKERDFVAAISRSTGRTFYADSVKGRFTISRDNAKNTVYLQMKSLQPEDTAVYYCDAAAKAGTTPTRSYWRHDSWGQGTQVSVSS,high polyreactivity
14,QVQLVESGGGLVQAGGSLRLSCAASGITLFGYTMGWYRQAPGKERELVAAIRRRGVSTYYADSVKGRFTISRDNAKNTVYLQMNSLKPEDTAVYYCAKSLKPYTDYDYWGQGTQVTVSS,high polyreactivity
15,QVQLVESGGGLVQAGGSLRLSCAASGNIFAYYAMGWYRQAPGKERELVAAITDSGGNTFYADSVKGRFTISRDNAKNTVYLQMNSLKPEDTAVYYCAVRHRYTRAYWGRDYWGQGTQVTVSS,low polyreactivity
16,QVQLVESGGGLVQAGGSLRLSCAASGFTFARNGMGWYRQAPGKEREFVAAITRSGGRTYYADSVKGRFTISRDNAKNTVYLQMNSLKPEDTAVYYCAAGYRGIGMNYWGQGTQVTVSS,high polyreactivity
17,QVQLVESGGGLVQAGGSLRLSCAASGSIFYRNTMGWYRQAPGKERELVAAITRGTRTYYADSGKGRFTISRDNAKNTVYLQMNSLKPEDTAVYYCNARFVGRTGGSFDYWGQGTQVTVSS,high polyreactivity
18,QVQLVESGGGLVQAGGSLRLSCAASGSIFFSNAMGWYRQAPGKERELVAVITYSGGGTYYADSVKGRFTISRDNAKNTVYLQMNSLKPEDTAVYYCNTDLGPDGISWHWYAYDYWGQGTQVTVSS,low polyreactivity
19,QDQLVESGGGLVQAGGSLRLSCAASGSIFSNYAMGWYRQAPGKERELVATITSAGSTYYADSVKGRFTISRDNAKNTVYLQLNSLKPEDTAVYYCAALYLGSYDYYDDMDYWGQGTQVTVSS,low polyreactivity
20,QVQLVESGGGLVQAGGSLRLSSAASGSIFVLNAMGWYRQAPGKERELVAAITNVGSTYYADSVKGRFTISRDNAKNTVYLQMNSLKPEDTAVYYCNADPGEVLVGYDYWGQGTQVTVSS,low polyreactivity
21,QVQLVESGGGLVQAGGSLRLSCAASGGTFSYYTMGWYRPAPGKERELVAAISSGGSTNYADSVKGRFTISRDNAKNTVYLQMNSLKPEDTAVYYCAVRSGRRNYDRPAFGYWGQGTQVTVSS,high polyreactivity

# Source: the nanobody polyreactivity screen of Harvey et al. (2022)
